Data taken from patent publication US20230235090A1 (HARBOUR BIOMED US, published 2023).
Numbering of substitutions follows the chain as printed. One block for each binder: values may come before it.

Experiments:
[1] = target: T1, human 4-1BB (human, UniProt Q07011 24-255); experiment: FACS, CHO-K1/hu 4-1BB cells [B]
T1 construct: whole, on cells; also called CD137; TNFRSF9
Experimental: (§1) This example is intended to investigate the in vitro binding activity of anti-human 4-1BB HCAb and H2L2 monoclonal antibodies to human and cynomolgus monkey 4-1BB. Antibody binding experiments at the cellular level were conducted using a CHO-K1 cell strain overexpressing human 4-1BB (CHO-K1-hu 4-1BB, Genescript) and a CHO-K1 cell strain overexpressing cynomolgus monkey 4-1BB (CHO-K1-cyno 4-1BB, Genescript). Briefly, the CHO-K1-hu 4-1BB and CHO-K1-cyno 4-1BB cells were digested and resuspended in DMEM complete medium, and the cell density was adjusted to 1×10⁶ cells/mL. […] The cells were incubated at 4° C. for 1 h away from light. Thereafter, the cells in each well were rinsed twice with 100 μL of pre-cooled PBS, and centrifuged at 500 g at 4° C. for 5 min, and then the supernatant was discarded. […] The plate was incubated away from light at 4° C. for 30 min. The cells in each well were rinsed twice with 100 μL of pre-cooled PBS, and centrifuged at 500 g at 4° C. for 5 min, and then the supernatant was discarded. Finally, the cells in each well were resuspended in 200 μL of pre-cooled PBS, and the fluorescence signal values were read using a BD FACS CANTOII.

[2] = target: T2, cynomolgus monkey 4-1BB (cynomolgus monkey); experiment: FACS, CHO-K1/cyno 4-1BB cells [B]
T2 construct: whole, on cells; also called CHO-K1-cyno 4-1BB; CHO-K1/cyno4-1BB
Experimental: as §1

[3] = target: T1, human 4-1BB; experiment: FACS, CHO-K1/hu 4-1BB cells [F]
Experimental: as §1

[4] = target: T1, human 4-1BB; experiment: FACS, CHO-K1/hu 4-1BB cells [H]
Experimental: (§2) Antibody binding experiments at the cellular level were conducted using a CHO-K1 cell strain overexpressing human 4-1BB (CHO-K1-hu 4-1BB, Genescript) and a CHO-K1 cell strain overexpressing cynomolgus monkey 4-1BB (CHO-K1-cyno 4-1BB, Genescript). Briefly, the CHO-K1-hu 4-1BB and CHO-K1-cyno 4-1BB cells were digested and resuspended in DMEM complete medium, and the cell density was adjusted to 1×10⁶ cells/mL. […] The cells were incubated at 4° C. for 1 h away from light. Thereafter, the cells in each well were rinsed twice with 100 μL of pre-cooled PBS, and centrifuged at 500 g at 4° C. for 5 min, and then the supernatant was discarded. […] The plate was incubated away from light at 4° C. for 30 min. The cells in each well were rinsed twice with 100 μL of pre-cooled PBS, and centrifuged at 500 g at 4° C. for 5 min, and then the supernatant was discarded. Finally, the cells in each well were resuspended in 200 μL of pre-cooled PBS, and the fluorescence signal values were read using a BD FACS CANTOII.

[5] = target: T2, cynomolgus monkey 4-1BB; experiment: FACS, CHO-K1/cyno 4-1BB cells [F]
Experimental: as §1

[6] = target: T2, cynomolgus monkey 4-1BB; experiment: FACS, CHO-K1/cyno 4-1BB cells [G]
Experimental: as §2

[7] = target: T3, human B7-H4 (human, UniProt Q7Z7D3 25-282); experiment: FACS, SK-BR-3 cells [A]
T3 construct: whole, on cells; also called VTCN1; SK-BR-3 cell line highly expressing B7-H4
T3 sequence (looked up): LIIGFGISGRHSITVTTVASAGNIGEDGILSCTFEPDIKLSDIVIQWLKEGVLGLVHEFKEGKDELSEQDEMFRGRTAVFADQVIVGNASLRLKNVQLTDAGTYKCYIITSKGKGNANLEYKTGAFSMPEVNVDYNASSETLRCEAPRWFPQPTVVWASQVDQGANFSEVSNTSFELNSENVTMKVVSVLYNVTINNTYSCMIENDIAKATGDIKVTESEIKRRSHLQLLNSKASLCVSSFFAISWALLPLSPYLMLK
Experimental: (§3) This example is intended to investigate the in vitro binding activity of anti-human B7-H4 H2L2 monoclonal antibody to human/cynomolgus monkey/mouse B7-H4. Antibody binding experiments at the cellular level were conducted using a CHO-K1 cell strain overexpressing cynomolgus monkey B7-H4 (CHO-K1/cyno B7-H4, prepared in-house by Harbour Biomed), a CHO-K1 cell strain overexpressing mouse B7-H4 (CHO-K1/m B7-H4, prepared in-house by Harbour Biomed) and an SK-BR-3 cell line highly expressing human B7-H4 (ATCC® HTB-30). Briefly, the CHO-K1/cyno B7-H4 cells, CHO-K1/m B7-H4 cells or SK-BR-3 cells were digested and resuspended with PBS containing 2% BSA. The cell density was adjusted to 1×10⁶ cells/mL. […] The cells were incubated at 4° C. for 2 h away from light. Thereafter, the cells in each well were rinsed twice with 100 μL of pre-cooled PBS containing 2% BSA, and centrifuged at 500 g at 4° C. for 5 min, and then the supernatant was discarded. […] The plate was incubated away from light at 4° C. for 1 h. The cells in each well were rinsed twice with 100 μL of pre-cooled PBS containing 2% BSA, and centrifuged at 500 g at 4° C. for 5 min, and then the supernatant was discarded. Finally, the cells in each well were resuspended in 200 μL of pre-cooled PBS containing 2% BSA, and the fluorescence signal values were read using an ACEA Novocyte3000 flow cytometer.

[8] = target: T4, mouse B7-H4 (mouse, UniProt Q7TSP5 25-257); experiment: FACS, CHO-K1/m B7H4 cells [C]
T4 construct: whole, on cells; also called CHO-K1/m B7-H4; CHO-K1/mB7-H4
T4 sequence (looked up): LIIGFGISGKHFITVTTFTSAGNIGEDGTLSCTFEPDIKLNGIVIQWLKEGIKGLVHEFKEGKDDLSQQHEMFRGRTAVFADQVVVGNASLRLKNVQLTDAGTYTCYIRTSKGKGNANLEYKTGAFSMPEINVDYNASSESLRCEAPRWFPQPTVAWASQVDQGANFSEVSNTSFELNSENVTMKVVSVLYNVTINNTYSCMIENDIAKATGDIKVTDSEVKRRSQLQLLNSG
Experimental: as §3

[9] = target: T5, cynomolgus monkey B7-H4 (cynomolgus monkey, UniProt A0A2K5U6P5 25-282); experiment: FACS, CHO-K1/cyno B7H4 cells [B]
T5 construct: whole, on cells; also called CHO-K1/cyno B7-H4; CHO-K1/cynoB7H4
T5 sequence: T3 sequence (looked up) with L53I, F242L, S252A
Experimental: as §3

[10] = target: T1, human 4-1BB; experiment: FACS, CHO-K1/hu 4-1BB cells [C]
Experimental: as §1

[11] = target: T2, cynomolgus monkey 4-1BB; experiment: FACS, CHO-K1/cyno 4-1BB cells [C]
Experimental: as §1

[12] = target: T1, human 4-1BB; experiment: FACS, CHO-K1/hu 4-1BB cells [E]
Experimental: as §2

[13] = target: T2, cynomolgus monkey 4-1BB; experiment: FACS, CHO-K1/cyno 4-1BB cells [E]
Experimental: as §1

[14] = target: T1, human 4-1BB; experiment: FACS, CHO-K1/hu 4-1BB cells [A]
Experimental: as §1

[15] = target: T2, cynomolgus monkey 4-1BB; experiment: FACS, CHO-K1/cyno 4-1BB cells [A]
Experimental: as §1

[16] = target: T1, human 4-1BB; experiment: FACS, CHO-K1/hu 4-1BB cells [D]
Experimental: as §2

[17] = target: T2, cynomolgus monkey 4-1BB; experiment: FACS, CHO-K1/cyno 4-1BB cells [D]
Experimental: as §1

T1 sequence (Q07011 24-255): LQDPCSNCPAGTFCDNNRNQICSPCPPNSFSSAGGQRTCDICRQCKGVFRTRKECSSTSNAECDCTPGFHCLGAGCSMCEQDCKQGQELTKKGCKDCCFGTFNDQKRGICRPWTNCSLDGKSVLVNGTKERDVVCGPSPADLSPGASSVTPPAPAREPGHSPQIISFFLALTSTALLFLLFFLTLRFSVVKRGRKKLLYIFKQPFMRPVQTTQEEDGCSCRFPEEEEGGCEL

EC50 [1]: 5.87 nM
Maximum MFI [1]: 1450 MFI
EC50 [2]: 25 nM
Maximum MFI [2]: 68400 MFI
B1: PR001767 (antibody, human IgG1, V domains shown)
VH: EVQLVETGGGLIQPGGSLRLSCAASGFTVSSNYMSWVRQAPGKGLEWVSVIYSDGSTYYADSVKGRFTISRDNSKNTLYLQMNSLRAEDTAVYYCARDRYYGSGNYPTAYYGMDVRGQGTTVTVSS
notes: anti-4-1BB HCAb, human IgG1 Fc

EC50 [3]: 0.248 nM
Maximum MFI [3]: 1770 MFI
EC50 [4]: 0.851 nM
Maximum MFI [4]: 102000 MFI
EC50 [5]: 1.09 nM
Maximum MFI [5]: 13400 MFI
EC50 [6]: 0.329 nM
B2: PR001838 (antibody, human IgG1, V domains shown)
VH: EVQLLESGGGLVQPGGSLRLSCAASGFTFSNYAMSWFRQPPETGLKWVSSIDGSGGDTYYADSVKGRFTISRDNSKNTLYLQMNSLRAEDTAVYYCAKEGSHGTDDSHYDVDVWGQGTTVTVSS
notes: as for B1

EC50 [7]: 0.367 nM
Maximum MFI [7]: 239000 MFI
EC50 [8]: 3.61 nM
Maximum MFI [8]: 353000 MFI
EC50 [9]: 1.1 nM
Maximum MFI [9]: 1.82e+06 MFI
B3: PR001476 (antibody, human IgG1, kappa, V domains shown)
VH: QVQLVESGGGVVQPGRSLRLSCAASGFTFRSFGMHWVRQAPGKGLEWVAVISYDGSNEYYADSVKGRFIISRDNSKDTLYLQMNSLRAGDTAVYYCAKGGGLRWYFAYWGQGTLVTVSS
VL: EIVMTQSPATLSVSPGERATLSCRASQSISSNLGWYQQKPGQAPRLLIYGASTRATGIPARFSGSGSGTEFTLTISSLQSEDFAVYYCQQYNSWPPLTFGGGTKVEIKR
notes: anti-B7-H4 H2L2 recombinant fully human antibody, human IgG1 / kappa; also called 80C8-2E9 clone

EC50 [10]: 1.27 nM
Maximum MFI [10]: 1540 MFI
EC50 [11]: 6.73 nM
Maximum MFI [11]: 48000 MFI
B4: PR001774 (antibody, human IgG1, V domains shown)
VH: EVQLVESGGGLVQPGGSLRLSCAASGFTFSSFAMTWVRQAPEKGLEWVSTISGSGDTTYYADSVKGRFTISRDSSKNTLYLQMNSLRAEDSAVYFCAKEATAMASDYYYGVDVWGQGTTVTVSS
notes: as for B1

EC50 [1]: 0.249 nM
Maximum MFI [1]: 1560 MFI
EC50 [2]: 5.33 nM
Maximum MFI [2]: 77300 MFI
B5: PR001764 (antibody, human IgG1, V domains shown)
VH: EVQLLESGGGLVQPGGSLRLSCAASGFTFSSYAMSWVRQAPEKGLEWVSAISGGGGSTYYADSVKGRFTISRDNSKNTLYLQMDSLKAEDTAVYYCAKEGTTETDDYHYNMDVWGQGTTVTVSS
notes: as for B1

EC50 [12]: 0.21 nM
Maximum MFI [12]: 1710 MFI
EC50 [13]: 1.02 nM
Maximum MFI [13]: 12600 MFI
B6: PR001833 (antibody, human IgG1, V domains shown)
VH: B5 VH with A50S, G54S, Y59F, D84N, K87R, Y95F, T101A, Y109F, M111T
notes: as for B1

EC50 [7]: 2.22 nM
Maximum MFI [7]: 257000 MFI
EC50 [8]: 2.57 nM
Maximum MFI [8]: 1.69e+06 MFI
EC50 [9]: 2.38 nM
Maximum MFI [9]: 1.92e+06 MFI
B7: PR002037 (antibody, human IgG1, kappa, V domains shown)
VH: QVQLVQSGAEVKKPGSSMRVSCKASEDTFSSYAISWVRQAPGQGLEWMGGTAPIFGTTNYAQKFQGRVTITADKSTSTAYMELSSLRSEDTAVYYCARGGPYFDYWGQGTLVTVSS
VL: EIVMTQSPASLSVSPGERATLSCRASQSVSSNLAWYQQKPGQAPRLLIYGASTRATGIPARVSGGGSGTEFTLTISSLQSEDFAVYCCQQYKNWPFTFGPGTKLEIKR
notes: also called 1025_B-1H11 clone

EC50 [7]: 1.87 nM
Maximum MFI [7]: 245000 MFI
EC50 [8]: 2.38 nM
Maximum MFI [8]: 1.55e+06 MFI
EC50 [9]: 2.08 nM
Maximum MFI [9]: 1.86e+06 MFI
B8: PR002410 (antibody, human IgG1, kappa, V domains shown)
VH: B7 VH
VL: B7 VL with C87Y
notes: anti-B7-H4 H2L2 recombinant fully human antibody, human IgG1 / kappa; also called PR002037 variant

EC50 [1]: 0.846 nM
Maximum MFI [1]: 1550 MFI
EC50 [11]: 6.97 nM
Maximum MFI [11]: 62200 MFI
B9: PR001768 (antibody, human IgG1, V domains shown)
VH: EVQLLESGGGLVQPGGSLRLSCAASGFTFSNYAMTWVRQAPGKGLEWVSSISGSGDSTYYADSVKGRFTISRDNSKNTLYLQMNSLRAEDTAVYYCAKEGTGTTSDYYYNVDVWGQGTTVTVSS
notes: as for B1

EC50 [12]: 0.209 nM
Maximum MFI [12]: 1830 MFI
EC50 [13]: 0.899 nM
Maximum MFI [13]: 14000 MFI
B10: PR001830 (antibody, human IgG1, V domains shown)
VH: EVQLLESGGGLVQPGGSLRLSCTASGFTFSNYAMSWVRQAPEKGLEWVSSISGSGGSTFYADSVKGRFTISRDNSKNTLYLQMNSLRAEDTAVYFCAKEGSSETDDHYYNVDVWGQGTTVTVSS
notes: as for B1

EC50 [14]: 0.212 nM
Maximum MFI [14]: 1640 MFI
EC50 [15]: 0.575 nM
Maximum MFI [15]: 11200 MFI
B11: PR001758 (antibody, human IgG1, V domains shown)
VH: EVQLLESGGGLVQLGGSLRLSCAASGFTFSRYAMTWVRQAPEKGLEWVSSISGSGDDTYYGDSVKGRFTISRDNSQNTVYLQMNSLRAEDTAVYFCAKEKAGTTGDYYYNVDVWGQGTTVTVSS
notes: anti-4-1BB fully human heavy-chain-only antibody (HCAb): VH fused to human IgG1 Fc

EC50 [10]: 0.532 nM
Maximum MFI [10]: 1720 MFI
EC50 [11]: 3.77 nM
Maximum MFI [11]: 65700 MFI
B12: PR001771 (antibody, human IgG1, V domains shown)
VH: B9 VH with A40P, D56G
notes: as for B1

EC50 [16]: 0.708 nM
Maximum MFI [16]: 1700 MFI
EC50 [17]: 2.99 nM
Maximum MFI [17]: 55500 MFI
B13: PR001780 (antibody, human IgG1, V domains shown)
VH: B4 VH with V5L, V12I, E42G, T57N, S74N, S91T, A100D, M103V, G110N, V111I
notes: as for B1

EC50 [16]: 0.492 nM
Maximum MFI [16]: 1760 MFI
EC50 [17]: 3.1 nM
Maximum MFI [17]: 58300 MFI
B14: PR001781 (antibody, human IgG1, V domains shown)
VH: B9 VH with P14L, N31S, G42E, D56G, S57N, G100R, S105G
notes: as for B1

EC50 [14]: 0.616 nM
Maximum MFI [14]: 1600 MFI
Maximum MFI [2]: 57700 MFI
B15: PR001763 (antibody, human IgG1, V domains shown)
VH: B10 VH with S85R, R87T, F95Y, S102N, E103G, H107Y, Y108H, N110D, V111I
notes: as for B1

EC50 [3]: 0.28 nM
Maximum MFI [3]: 1830 MFI
EC50 [13]: 2.41 nM
Maximum MFI [13]: 15900 MFI
B16: PR001836 (antibody, human IgG1, V domains shown)
VH: EVQLLESGGGLVQPGGSLRLSCAASGFIFSNFAMTWVRQPPEKGLKWVSSINGSGFNTYYTDSVKGRFTISRDNSRNTLYLQMNRLTAEDTAVYFCAKEGSSETDDHYYNVDVWGQGTTVTVSS
notes: as for B1

EC50 [3]: 0.37 nM
Maximum MFI [3]: 1670 MFI
EC50 [5]: 1.25 nM
Maximum MFI [5]: 7300 MFI
B17: PR001840 (antibody, human IgG1, V domains shown)
VH: EVQLVESGGGLVQPGGSLRLSCAASGFTFSSYWMHWVRQAPGKGLVWVSRINSDGSSTSYADSVQGRFTISRDNAKNTLYLQMNSLRAEDTAVYYCVRKGSSSYYHYSIEDDWGQGTLVTVSS
notes: as for B1
